In patent publication US20250090663A1:

What was measured:
Cyno GPC3.hFc = assay: SPR (Carterra)
Human GPC3.hFc = assay: SPR (Carterra)

HGC33 scFv
Kd (Cyno GPC3.hFc): 2.46 nM
Kd (Human GPC3.hFc): 2.63 nM
